# Source: patent US20190345232A1 (GENEURO, published 2019)
# T1: linear peptide SLDKHKHKKLQSFYP (SEQ ID NO:9) from HERV-K-Env (human endogenous retrovirus type K …)
# T1 construct: 15-mer synthesized on a solid support in the Pepscan peptide array; It corresponds to the 298-312 region of the HERV-K-Env protein described by Dewannieux et al 2005
# T1 peptide: SLDKHKHKKLQSFYP
# B1: GN_mAb_Env_K01 (antibody, V domains shown)
# VH: QVQLQQPGAELVRPGASVKLSCKASGYTFTSYWMNWVKQRPEQGLEWIGRIDPYDSETHYNQKFKDKAILTVDKSSSTAYMQLSSLTSEDSAVYYCASLYYYGISLWGQGTLVTVS
# VL: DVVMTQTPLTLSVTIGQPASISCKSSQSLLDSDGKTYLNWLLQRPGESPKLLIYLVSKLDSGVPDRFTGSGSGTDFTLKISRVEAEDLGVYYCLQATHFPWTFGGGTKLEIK
# notes: also called GN K01; GN K01 Ig
# Target: T1, linear peptide SLDKHKHKKLQSFYP (SEQ ID …)
# Test: Pepscan peptide array ELISA, antibody at 1 µg/ml
binder,measurement,value
B1,binding result,binds
